Source: PMC10085699
Like-named read-outs stand apart in the source and are kept apart here.

Columns and labels:
SETX-HD-WT [1] = biological target: T1, SETX-HD-WT (Homo sapiens, UniProt Q7Z333 1674-2677); assay: BLI
T1 sequence: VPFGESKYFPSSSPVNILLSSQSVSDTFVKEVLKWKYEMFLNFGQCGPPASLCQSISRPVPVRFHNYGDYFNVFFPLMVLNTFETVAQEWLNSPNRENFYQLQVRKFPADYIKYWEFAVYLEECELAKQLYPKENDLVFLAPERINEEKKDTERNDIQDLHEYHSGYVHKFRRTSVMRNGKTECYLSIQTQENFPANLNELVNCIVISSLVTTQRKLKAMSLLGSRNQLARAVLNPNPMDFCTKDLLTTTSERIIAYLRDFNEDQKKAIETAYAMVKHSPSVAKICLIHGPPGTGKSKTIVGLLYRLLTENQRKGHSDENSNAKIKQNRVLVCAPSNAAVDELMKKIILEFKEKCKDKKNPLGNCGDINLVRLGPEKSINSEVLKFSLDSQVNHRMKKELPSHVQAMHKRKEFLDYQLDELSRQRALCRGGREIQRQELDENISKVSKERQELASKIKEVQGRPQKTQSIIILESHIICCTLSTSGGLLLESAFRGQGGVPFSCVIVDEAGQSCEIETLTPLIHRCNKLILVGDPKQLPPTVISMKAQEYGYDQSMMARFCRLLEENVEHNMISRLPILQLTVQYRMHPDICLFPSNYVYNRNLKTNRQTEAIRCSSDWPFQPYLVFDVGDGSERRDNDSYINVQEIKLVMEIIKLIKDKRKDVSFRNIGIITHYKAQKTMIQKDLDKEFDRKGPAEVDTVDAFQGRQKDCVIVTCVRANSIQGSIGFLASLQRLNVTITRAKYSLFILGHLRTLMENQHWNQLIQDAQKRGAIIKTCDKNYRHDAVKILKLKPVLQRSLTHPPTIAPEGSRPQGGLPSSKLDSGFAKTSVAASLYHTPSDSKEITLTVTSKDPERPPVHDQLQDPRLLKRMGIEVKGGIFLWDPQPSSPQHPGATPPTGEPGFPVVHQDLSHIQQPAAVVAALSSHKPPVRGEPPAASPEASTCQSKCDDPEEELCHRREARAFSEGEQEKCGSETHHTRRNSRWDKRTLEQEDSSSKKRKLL

Sen1-HD [2] = biological target: T2, Sen1-HD (UniProt Q00416 1095-1904); assay: BLI
T2 sequence: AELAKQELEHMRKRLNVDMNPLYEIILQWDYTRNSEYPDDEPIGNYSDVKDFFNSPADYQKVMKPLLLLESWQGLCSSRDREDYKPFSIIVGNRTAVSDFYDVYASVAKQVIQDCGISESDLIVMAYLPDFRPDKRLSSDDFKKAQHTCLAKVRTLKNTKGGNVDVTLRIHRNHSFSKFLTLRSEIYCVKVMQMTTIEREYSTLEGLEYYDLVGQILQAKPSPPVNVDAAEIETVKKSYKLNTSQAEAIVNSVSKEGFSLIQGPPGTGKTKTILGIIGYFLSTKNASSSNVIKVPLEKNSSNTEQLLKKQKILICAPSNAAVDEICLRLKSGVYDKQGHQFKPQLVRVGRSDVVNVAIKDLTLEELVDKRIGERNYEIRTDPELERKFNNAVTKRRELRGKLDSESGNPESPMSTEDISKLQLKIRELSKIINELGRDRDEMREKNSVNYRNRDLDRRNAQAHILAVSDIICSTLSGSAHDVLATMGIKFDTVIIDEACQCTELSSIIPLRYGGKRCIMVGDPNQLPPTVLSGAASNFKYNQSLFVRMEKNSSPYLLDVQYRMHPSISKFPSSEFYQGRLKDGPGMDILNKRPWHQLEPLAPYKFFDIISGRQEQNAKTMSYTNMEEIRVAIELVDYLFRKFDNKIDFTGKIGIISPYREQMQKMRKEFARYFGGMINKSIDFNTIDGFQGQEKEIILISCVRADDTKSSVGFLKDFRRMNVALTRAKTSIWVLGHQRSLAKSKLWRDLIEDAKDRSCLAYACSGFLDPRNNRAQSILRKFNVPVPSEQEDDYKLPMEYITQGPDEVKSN

SETX-HD-WT [3] = biological target: T1, SETX-HD-WT; assay: EMSA
SETX-HD-WT [4] = biological target: T1, SETX-HD-WT; assay: EMSA; remark: listed apart in the source
SETX-HD-WT [5] = biological target: T1, SETX-HD-WT; assay: EMSA; remark: listed apart in the source
SETX-HD-WT [6] = biological target: T1, SETX-HD-WT; assay: EMSA; remark: listed apart in the source
Sen1-HD [7] = biological target: T2, Sen1-HD; assay: BLI; remark: listed apart in the source
SETX-HD-V1884T = biological target: T3, SETX-HD-V1884T (Homo sapiens, UniProt Q7Z333 1674-2677, V1884T); assay: BLI
T3 sequence: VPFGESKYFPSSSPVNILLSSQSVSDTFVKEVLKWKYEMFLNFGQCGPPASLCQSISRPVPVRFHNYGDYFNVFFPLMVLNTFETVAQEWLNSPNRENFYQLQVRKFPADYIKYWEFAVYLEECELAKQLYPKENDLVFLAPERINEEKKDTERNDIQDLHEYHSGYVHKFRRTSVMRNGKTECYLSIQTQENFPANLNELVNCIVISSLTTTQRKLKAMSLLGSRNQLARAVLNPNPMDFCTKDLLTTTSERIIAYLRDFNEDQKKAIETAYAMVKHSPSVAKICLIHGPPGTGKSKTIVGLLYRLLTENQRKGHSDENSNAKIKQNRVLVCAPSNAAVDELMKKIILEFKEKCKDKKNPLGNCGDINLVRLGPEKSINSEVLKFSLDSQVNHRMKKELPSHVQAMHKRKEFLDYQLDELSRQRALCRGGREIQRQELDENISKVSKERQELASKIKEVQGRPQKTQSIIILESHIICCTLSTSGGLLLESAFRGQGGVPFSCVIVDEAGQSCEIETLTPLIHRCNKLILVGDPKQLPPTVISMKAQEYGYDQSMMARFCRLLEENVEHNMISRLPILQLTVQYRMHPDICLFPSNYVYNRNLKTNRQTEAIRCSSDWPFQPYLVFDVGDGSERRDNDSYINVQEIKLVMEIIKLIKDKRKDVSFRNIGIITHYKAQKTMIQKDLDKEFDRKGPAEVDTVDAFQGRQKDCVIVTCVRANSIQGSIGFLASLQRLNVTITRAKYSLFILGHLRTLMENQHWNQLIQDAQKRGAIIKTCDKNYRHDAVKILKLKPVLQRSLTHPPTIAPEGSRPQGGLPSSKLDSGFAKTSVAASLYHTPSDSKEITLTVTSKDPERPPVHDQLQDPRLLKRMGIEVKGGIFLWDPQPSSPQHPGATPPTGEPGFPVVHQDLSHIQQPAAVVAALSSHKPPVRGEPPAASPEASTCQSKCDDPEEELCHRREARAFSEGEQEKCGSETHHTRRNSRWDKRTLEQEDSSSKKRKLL

SETX-HD-WT [8] = biological target: T1, SETX-HD-WT; assay: BLI; remark: listed apart in the source

TTGTCTTCTCATAAATTTAATCCCCGTACGCTTATACTCCT (ssDNA) [ssDNA pRMS739 (41 nt)]
Kd (SETX-HD-WT [1]): 2.8 nM
Kd (Sen1-HD [2]): 3.4 nM

B1: 5'-oh R-loop (pRMS217/219/222) (mixed)
DNA 1: GACGCTGCCGAATTCTACCAGTGCCTTGCTAGGACATCTTTGCCCACCTGCAGGTTCACCC
DNA 2: GGGTGAACCTGCAGGTGGGCGGCTGCTCATCGTAGGTTAGTTGGTAGAATTCGGCAGCGTC
RNA: UAAGAGCAAGAUGUUCUAUAAAAGAUGUCCUAGCAAGGCAC
binding result (SETX-HD-WT [3]): binds

B2: R-loop, no overhang (pRMS217/219/223) (mixed)
DNA 1: GACGCTGCCGAATTCTACCAGTGCCTTGCTAGGACATCTTTGCCCACCTGCAGGTTCACCC
DNA 2: GGGTGAACCTGCAGGTGGGCGGCTGCTCATCGTAGGTTAGTTGGTAGAATTCGGCAGCGTC
RNA: AAAGAUGUCCUAGCAAGGCAC
binding result (SETX-HD-WT [3]): binds

B3: 3'-oh R-loop (pRMS217/219/626) (mixed)
DNA 1: GACGCTGCCGAATTCTACCAGTGCCTTGCTAGGACATCTTTGCCCACCTGCAGGTTCACCC
DNA 2: GGGTGAACCTGCAGGTGGGCGGCTGCTCATCGTAGGTTAGTTGGTAGAATTCGGCAGCGTC
RNA: AAAGAUGUCCUAGCAAGGCACUAAGUCCUAGAUGUUCUAUA
binding result (SETX-HD-WT [3]): binds

B4: 5'-oh RNA:DNA hybrid (pRMS678/pRMS690) (DNA:RNA)
RNA: UUGUCUUCUCAUAAAUUUAAUCCCCGUACGCUUAUACUCCUUUAACUACCCAGUCUUCCCG
DNA: CGGGAAGACTGGGTAGTTAA
binding result (SETX-HD-WT [4]): binds

B5: blunt RNA:DNA hybrid (pRMS678/pRMS743) (DNA:RNA)
RNA: UUGUCUUCUCAUAAAUUUAAUCCCCGUACGCUUAUACUCCUUUAACUACCCAGUCUUCCCG
DNA: CGGGAAGACTGGGTAGTTAAAGGAGTATAAGCGTACGGGGATTAAATTTATGAGAAGACAA
binding result (SETX-HD-WT [5]): no binding

B6: 3'-oh RNA:DNA hybrid (pRMS678/pRMS689) (DNA:RNA)
RNA: UUGUCUUCUCAUAAAUUUAAUCCCCGUACGCUUAUACUCCUUUAACUACCCAGUCUUCCCG
DNA: TTAAATTTATGAGAAGACAA
binding result (SETX-HD-WT [6]): binds

UUGUCUUCUCAUAAAUUUAAUCCCCGUACGCUUAUACUCCU (ssRNA) [ssRNA pRMS740 (41 nt)]
Kd (Sen1-HD [7]): 3.7 nM
binding result (SETX-HD-V1884T): binds
Kd (SETX-HD-WT [8]): 4.6 nM
